Results from patent US20230056252A1 (Gilead, published 2023).
Like-named read-outs stand apart in the source and are kept apart here.

B1: huSP34.3.13 Fab-HF (Fab, V domains shown)
VH: EVQLVESGGGLVQPGGSLRLSCAASGFTFNTYAMNWVRQAPGKGLEWVGRIRSKYNNYATYYADSVKGRFTISRDDSKNSLYLQMNSLRTEDTAVYYCVRHGNFGHSYVSWFAYWGQGTLVTVSS
VL: QAVVTQEPSLTVSPGGTVTLTCGSSTGAVTTGHYANWVQQKPGQAPRGLIGGTSNRAPGVPARFSGSLLGGKAALTISGAQPEDEAEYYCALWYSNRWVFGGGTKLTVL
notes: also called HC3+LC13
B2: huSP34.3.19 Fab-HF (Fab, V domains shown)
VH: EVQLVESGGGLVQPGGSLRLSCAASGFTFNTYAMNWVRQAPGKGLEWVGRIRSKYNNYATYYADSVKGRFTISRDDSKNSLYLQMNSLRTEDTAVYYCVRHGNFGHSYVSWFAYWGQGTLVTVSS
VL: QAVVTQEPSLTVSPGGTVTLTCGSSTGAVTTGHYANWVQQKPGQAPRGLIGGTNKRAPGVPARFSGSLLGGKAALTISGAQPEDEAEYYCALWYSARWVFGGGTKLTVL
notes: also called HC3+LC19
B3: huSP34.34.10 Fab-HF (Fab, V domains shown)
VH: EVQLVESGGGLVQPGGSLRLSCAASGFTFNTYAMNWVRQAPGKGLEWVGRIRSKYNNYATYYAASVKGRFTISRDDSKNSLYLQMNSLKTEDTAMYYCVRHGNFGHSYVSWFAYWGQGTLVTVSS
VL: QAVVTQPPSLTVSPGGTVTLTCGSSTGAVTTGHYANWVQQKPGQAPRGLIGGTNKRAPGVPARFSGSLSGGKAALTISGAQPEDEAEYYCALWYSNRWVFGGGTKLTVL
notes: also called HC34+LC10
B4: huSP34.34.11 Fab-HF (Fab, V domains shown)
VH: EVQLVESGGGLVQPGGSLRLSCAASGFTFNTYAMNWVRQAPGKGLEWVGRIRSKYNNYATYYAASVKGRFTISRDDSKNSLYLQMNSLKTEDTAMYYCVRHGNFGHSYVSWFAYWGQGTLVTVSS
VL: QAVVTQEPSLTVSPGGTVTLTCGSSTGAVTTGHYANWVQQKPGQAPRGLIGGTNKRAPGVPARFSGSLLGGKAALTLSGAQPEDEAEYYCALWYSNLWVFGGGTKLTVL
notes: also called HC34+LC11
B5: huSP34.34.12 Fab-HF (Fab, V domains shown)
VH: EVQLVESGGGLVQPGGSLRLSCAASGFTFNTYAMNWVRQAPGKGLEWVGRIRSKYNNYATYYAASVKGRFTISRDDSKNSLYLQMNSLKTEDTAMYYCVRHGNFGHSYVSWFAYWGQGTLVTVSS
VL: QAVVTQPPSLTVSPGGTVTLTCGSSTGAVTTGHYANWVQQKPGQAPRGLIGGTNKRAPWTPARFSGSLSGGKAALTISGAQPEDEAEYYCALWYSNRWVFGGGTKLTVL
notes: also called HC34+LC12
B6: huSP34.34.14 Fab-HF (Fab, V domains shown)
VH: EVQLVESGGGLVQPGGSLRLSCAASGFTFNTYAMNWVRQAPGKGLEWVGRIRSKYNNYATYYAASVKGRFTISRDDSKNSLYLQMNSLKTEDTAMYYCVRHGNFGHSYVSWFAYWGQGTLVTVSS
VL: QAVVTQPPSLTVSPGGTVTLTCGSSTGAVTTGHYANWVQQKPGQAPRGLIGGTSNRAPGVPARFSGSLSGGKAALTISGAQPEDEAEYYCALWYSNRWVFGGGTKLTVL
notes: also called HC34+LC14
B7: huSP34.34.15 Fab-HF (Fab, V domains shown)
VH: EVQLVESGGGLVQPGGSLRLSCAASGFTFNTYAMNWVRQAPGKGLEWVGRIRSKYNNYATYYAASVKGRFTISRDDSKNSLYLQMNSLKTEDTAMYYCVRHGNFGHSYVSWFAYWGQGTLVTVSS
VL: QAVVTQPPSLTVSPGGTVTLTCGSSTGAVTTGHYANWVQQKPGQAPRGLIGGTNKRAPGVPARFSGSLSGGKAALTISGAQPEDEAEYYCALWYSARWVFGGGTKLTVL
notes: also called HC34+LC15
B8: huSP34.34.16 Fab-HF (Fab, V domains shown)
VH: EVQLVESGGGLVQPGGSLRLSCAASGFTFNTYAMNWVRQAPGKGLEWVGRIRSKYNNYATYYAASVKGRFTISRDDSKNSLYLQMNSLKTEDTAMYYCVRHGNFGHSYVSWFAYWGQGTLVTVSS
VL: QAVVTQPPSLTVSPGGTVTLTCGSSTGAVTTGHYANWVQQKPGQAPRGLIGGTSNRAPWTPARFSGSLSGGKAALTISGAQPEDEAEYYCALWYSNRWVFGGGTKLTVL
notes: also called HC34+LC16
B9: huSP34.34.17 Fab-HF (Fab, V domains shown)
VH: EVQLVESGGGLVQPGGSLRLSCAASGFTFNTYAMNWVRQAPGKGLEWVGRIRSKYNNYATYYAASVKGRFTISRDDSKNSLYLQMNSLKTEDTAMYYCVRHGNFGHSYVSWFAYWGQGTLVTVSS
VL: QAVVTQPPSLTVSPGGTVTLTCGSSTGAVTTGHYANWVQQKPGQAPRGLIGGTNKRAPWTPARFSGSLSGGKAALTISGAQPEDEAEYYCALWYSARWVFGGGTKLTVL
notes: also called HC34+LC17
B10: huSP34.34.18 Fab-H (Fab, V domains shown)
VH: EVQLVESGGGLVQPGGSLRLSCAASGFTFNTYAMNWVRQAPGKGLEWVGRIRSKYNNYATYYAASVKGRFTISRDDSKNSLYLQMNSLKTEDTAMYYCVRHGNFGHSYVSWFAYWGQGTLVTVSS
VL: QAVVTQPPSLTVSPGGTVTLTCGSSTGAVTTGHYANWVQQKPGQAPRGLIGGTSNRAPWTPARFSGSLSGGKAALTISGAQPEDEAEYYCALWYSARWVFGGGTKLTVL
notes: also called HC34+LC18
B11: huSP34.35.10 Fab-HF (Fab, V domains shown)
VH: EVQLVESGGGLVQPGGSLRLSCAASGFTFNDYAMNWVRQAPGKGLEWVGRTRSKYNNYATYYAASVKGRFTISRDDSKNSLYLQMNSLKTEDTAMYYCVRHGNFGHSYVSWFAYWGQGTLVTVSS
VL: QAVVTQPPSLTVSPGGTVTLTCGSSTGAVTTGHYANWVQQKPGQAPRGLIGGTNKRAPGVPARFSGSLSGGKAALTISGAQPEDEAEYYCALWYSNRWVFGGGTKLTVL
notes: also called HC35+LC10
B12: huSP34.35.12 Fab-H (Fab, V domains shown)
VH: EVQLVESGGGLVQPGGSLRLSCAASGFTFNDYAMNWVRQAPGKGLEWVGRTRSKYNNYATYYAASVKGRFTISRDDSKNSLYLQMNSLKTEDTAMYYCVRHGNFGHSYVSWFAYWGQGTLVTVSS
VL: QAVVTQPPSLTVSPGGTVTLTCGSSTGAVTTGHYANWVQQKPGQAPRGLIGGTNKRAPWTPARFSGSLSGGKAALTISGAQPEDEAEYYCALWYSNRWVFGGGTKLTVL
notes: also called HC35+LC12
B13: huSP34.36.10 Fab-HF (Fab, V domains shown)
VH: EVQLVESGGGLVQPGGSLRLSCAASGFTFNDYAMNWVRQAPGKGLEWVGRIRSKYNNYATYYAASVKGRFTISRDDSKNSLYLQMNSLKTEDTAMYYCVRHGNFGHSYVSWFAYWGQGTLVTVSS
VL: QAVVTQPPSLTVSPGGTVTLTCGSSTGAVTTGHYANWVQQKPGQAPRGLIGGTNKRAPGVPARFSGSLSGGKAALTISGAQPEDEAEYYCALWYSNRWVFGGGTKLTVL
notes: also called HC36+LC10
B14: huSP34.37.10 Fab-HF (Fab, V domains shown)
VH: EVQLVESGGGLVQPGGSLRLSCAASGFTFNTYAMNWVRQAPGKGLEWVGRTRSKYNNYATYYAASVKGRFTISRDDSKNSLYLQMNSLKTEDTAMYYCVRHGNFGHSYVSWFAYWGQGTLVTVSS
VL: QAVVTQPPSLTVSPGGTVTLTCGSSTGAVTTGHYANWVQQKPGQAPRGLIGGTNKRAPGVPARFSGSLSGGKAALTISGAQPEDEAEYYCALWYSNRWVFGGGTKLTVL
notes: also called HC37+LC10
B15: huSP34.6.6 Fab-HF (Fab, V domains shown)
VH: EVQLVESGGGLVQPGGSLRLSCAASGFTFSTYAMNWVRQAPGKGLEWVGRIRSKYNNYATYYADSVKGRFTISRDNSKNTLYLQMNSLRAEDTAMYYCVRHGNFGNSYVSWFAVWGQGTLVTVSS
VL: QAVVTQPPSLTVSPGGTVTLTCGSSTGAVTTGHYANWVQQKPGQAPRGLIGGTSNRAPGVPARFSGSLSGGKAALTISGAQPEDEAEYYCALWYSARWVFGGGTKLTVL
notes: also called HC6+LC6
B16: huSP34.7.6 Fab-HF (Fab, V domains shown)
VH: EVQLVESGGGLVQPGGSLRLSCAASGFTFSDYAMNWVRQAPGKGLEWVGRTRSKYNNYATYYAASVKGRFTISRDDSKNSLYLQMNSLKTEDTAVYYCVRHGNFGNSYVSWFAVWGQGTLVTVSS
VL: QAVVTQPPSLTVSPGGTVTLTCGSSTGAVTTGHYANWVQQKPGQAPRGLIGGTSNRAPGVPARFSGSLSGGKAALTISGAQPEDEAEYYCALWYSARWVFGGGTKLTVL
notes: also called HC7+LC6
B17: huSP34.9.6 Fab-HF (Fab, V domains shown)
VH: EVQLVESGGGLVQPGGSLRLSCAASGFTFSDYAMNWVRQAPGKGLEWVGRTRSKYNSYATYYAASVKGRFTISRDDSKNSLYLQMNSLKTEDTAVYYCVRHGNFGNSYVSWFAVWGQGTLVTVSS
VL: QAVVTQPPSLTVSPGGTVTLTCGSSTGAVTTGHYANWVQQKPGQAPRGLIGGTSNRAPGVPARFSGSLSGGKAALTISGAQPEDEAEYYCALWYSARWVFGGGTKLTVL
notes: also called HC9+LC6
B18: huSP34.10.6 Fab-HF (Fab, V domains shown)
VH: EVQLVESGGGLVQPGGSLRLSCAASGFTFSDYAMNWVRQAPGKGLEWVGRTRSKYNSYATYYAASVKGRFTISRDDSKNSLYLQMNSLKTEDTAVYYCVRHGNFGHSYVSWFAVWGQGTLVTVSS
VL: QAVVTQPPSLTVSPGGTVTLTCGSSTGAVTTGHYANWVQQKPGQAPRGLIGGTSNRAPGVPARFSGSLSGGKAALTISGAQPEDEAEYYCALWYSARWVFGGGTKLTVL
notes: also called HC10+LC6
B19: huSP34.34.6 Fab-HF (Fab, V domains shown)
VH: EVQLVESGGGLVQPGGSLRLSCAASGFTFNTYAMNWVRQAPGKGLEWVGRIRSKYNNYATYYAASVKGRFTISRDDSKNSLYLQMNSLKTEDTAMYYCVRHGNFGHSYVSWFAYWGQGTLVTVSS
VL: QAVVTQPPSLTVSPGGTVTLTCGSSTGAVTTGHYANWVQQKPGQAPRGLIGGTSNRAPGVPARFSGSLSGGKAALTISGAQPEDEAEYYCALWYSARWVFGGGTKLTVL
notes: also called HC34+LC6

Experiments:
[1] = molecular target: T1, biotinylated CD3 epsilon:delta heterodimer protein (Amsbio AMS.CDD-H52WO) (Homo sapiens (Human), UniProt P07766 23-126; P04234 22-105); assay: BLI (Octet), CD3 on SA sensor, Fab analyte
T1 construct: also called CD3 heterodimer
Method: (§1) The CD3 binding kinetics of the purified huSP34 Fabs were determined using OctetRed384 (Pall ForteBio, CA) biolayer interferometry (BLI). […] Streptavidin (SA) coated biosensors tips (Pall ForteBio, CA) were used to capture biotinylated CD3 epsilon: delta heterodimer and typical immobilization levels captured on the SA sensors were 1 nm which approximately translates to 300 ng/ml of captured protein. For kinetic measurements biosensors were first pre-wetted with assay buffer for 10 minutes to remove protective sucrose coating followed by the recommended regeneration conditions for standardization of the biosensor surface for the experiment. In order to load the biosensors with antigen, 300 ng/ml of biotinylated CD3 epsilon: delta heterodimer protein (Amsbio AMS.CDD-H52WO) was immobilized on the SA sensor for 900 seconds. The CD3 loaded biosensors were then blocked with 20 ug/ml biocytin (sigma) for 200 seconds and then dipped into assay buffer containing wells for 200 seconds to remove any non-specific protein or unbound CD3 heterodimer.
(§2) CD3 loaded and biocytin blocked biosensors were then transferred into fresh assay buffer for 200 seconds to collect a baseline read. Kinetic measurements for anti-CD3 Fab and bispecific antibody binding were performed by dipping the CD3-coated biosensors into wells containing multiple concentrations of Fab or Ab (0-300 nM) for 100 seconds followed by a 300 second dissociation time by transferring the biosensors into assay buffer containing wells. The CD3 loaded sensors were then regenerated for the next kinetic measurement. Biosensors were generated by removing bound Fabs or Ab from immobilized CD3 on SA biosensors. Regeneration conditions used consisted of 3 cycles of 5 seconds of dipping the biosensors in Regeneration Buffer (10 mM Glycine HCl pH 1.5) followed by Assay Buffer (10 mM sodium phosphate pH 7.4, 140 mM Sodium Chloride, 0.005% Tween20 with 0.2% BSA).

[2] = molecular target: T1, biotinylated CD3 epsilon:delta …; assay: BLI (Octet), CD3 on SA sensor, Fab analyte; remark: listed apart in the source
Method: as §1, §2

Binder | Kd [1] [nM] | koff [1] [s⁻¹] | kon [1] [M⁻¹ s⁻¹] | Kd [2] [nM] | koff [2] [s⁻¹] | kon [2] [M⁻¹ s⁻¹]
B1 | 6.2 | 0.00129 | 218000 | – | – | –
B2 | 9.9 | 0.00164 | 193000 | – | – | –
B3 | 4 | 0.000303 | 155000 | – | – | –
B4 | 10.8 | 0.00118 | 143000 | – | – | –
B5 | 8.1 | 0.0014 | 189000 | – | – | –
B6 | 3.9 | 0.00126 | 345000 | – | – | –
B7 | 14.7 | 0.0015 | 109000 | – | – | –
B8 | 28.8 | 0.00599 | 208000 | – | – | –
B9 | 29.9 | 0.00816 | 273000 | – | – | –
B10 | 87.1 | 0.0224 | 257000 | – | – | –
B11 | 224 | 0.0759 | 339000 | – | – | –
B12 | 125 | 0.103 | 2.08e+06 | – | – | –
B13 | 5.8 | 0.00929 | 1.6e+06 | – | – | –
B14 | 16.1 | 0.00267 | 171000 | – | – | –
B15 | – | – | – | 75 | 0.0292 | 464000
B16 | – | – | – | 425 | 0.17 | 403000
B17 | – | – | – | 289 | 0.169 | 582000
B18 | – | – | – | 314 | 0.157 | –
B19 | 8 | 0.00357 | 449000 | – | – | –
